Experiments:
HeLa Kyoto [1] = assay: solubility in G1/S (NP-40 vs SDS abundance) (log2 ratio); higher = more soluble; settings: cell cycle stage: G1/S
HeLa Kyoto [2] = assay: melting temperature (median over replicates), in situ; higher = more thermally stable
HeLa Kyoto [3] = assay: solubility change mitosis vs G1/S (difference of NP-40 vs SDS log2 ratios) (log2 ratio difference); higher = more soluble in mitosis
HeLa Kyoto [4] = assay: thermal stability score vs G1/S (z-score of summed log2 fold changes over temperatures); higher = more thermally stable than in G1/S
[5] = cell cycle stage: early G1 (4.5 h after nocodazole release)
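For melting temperature (median over replicates), in situ in this document: HeLa Kyoto cells synchronized by double thymidine or nocodazole block, proteins quantified by TMT10plex mass spectrometry, three independent biological replicates.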
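For solubility change mitosis vs G1/S (difference of NP-40 vs SDS log2 ratios) in this document: synchronized HeLa Kyoto cells (double thymidine block for G1/S, nocodazole release for mitosis), protein amounts in NP-40 versus SDS lysates quantified by mass spectrometry, three biological replicates.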
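For solubility in G1/S (NP-40 vs SDS abundance) in this document: HeLa Kyoto cells arrested at G1/S by double thymidine block, proteins quantified by TMT10plex mass spectrometry in mild NP-40 versus SDS extracts, three biological replicates.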
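For thermal stability score vs G1/S (z-score of summed log2 fold changes over temperatures) in this document: synchronized HeLa Kyoto cells, proteins quantified by TMT10plex mass spectrometry, three biological replicates, mitosis taken 0.5 h after nocodazole release, G1/S directly after double thymidine block.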

Sequence | solubility in G1/S (log2) (HeLa Kyoto [1]) | melting temperature (HeLa Kyoto [2]; cell cycle stage: G1/S) | melting temperature (HeLa Kyoto [2]; cell cycle stage: mitosis) | solubility change mitosis (log2) (HeLa Kyoto [3]) | thermal stability score (HeLa Kyoto [4]; [5]) | thermal stability score (HeLa Kyoto [4]; cell cycle stage: mitosis)
MSYTGFVQGSETTLQSTYSDTSAQPTCDYGYGTWNSGTNRGYEGYGYGYGYGQDNTTNYGYGMATSHSWEMPSSDTNANTSASGSASADSVLSRINQRLDMVPHLETDMMQGGVYGSGGERYDSYESCDSRAVLSERDLYRSGYDYSELDPEMEMAYEGQYDAYRDQFRMRGNDTFGPRAQGWARDARSGRPMASGYGRMWEDPMGARGQCMSGASRLPSLFSQNIIPEYGMFQGMRGGGAFPGGSRFGFGFGNGMKQMRRTWKTWTTADFRTKKKKRKQGGSPDEPDSKATRTDCSDNSDSDNDEGTEGEATEGLEGTEAVEKGSRVDGEDEEGKEDGREEGKEDPEKGALTTQDENGQTKRKLQAGKKSQDKQKKRQRDRMVERIQFVCSLCKYRTFYEDEMASHLDSKFHKEHFKYVGTKLPKQTADFLQEYVTNKTKKTEELRKTVEDLDGLIQQIYRDQDLTQEIAMEHFVKKVEAAHCAACDLFIPMQFGIIQKHLKTMDHNRNRRLMMEQSKKSSLMVARSILNNKLISKKLERYLKGENPFTDSPEEEKEQEEAEGGALDEGAQGEAAGISEGAEGVPAQPPVPPEPAPGAVSPPPPPPPEEEEEGAVPLLGGALQRQIRGIPGLDVEDDEEGGGGAP [AKAP8L] | -0.123 | 47.1 °C | 48.8 °C | 0.0856 | 0.782 | 1.54
MTAAENVCYTLINVPMDSEPPSEISLKNDLEKGDVKSKTEALKKVIIMILNGEKLPGLLMTIIRFVLPLQDHTIKKLLLVFWEIVPKTTPDGRLLHEMILVCDAYRKDLQHPNEFIRGSTLRFLCKLKEAELLEPLMPAIRACLEHRHSYVRRNAVLAIYTIYRNFEHLIPDAPELIHDFLVNEKDASCKRNAFMMLIHADQDRALDYLSTCIDQVQTFGDILQLVIVELIYKVCHANPSERARFIRCIYNLLQSSSPAVKYEAAGTLVTLSSAPTAIKAAAQCYIDLIIKESDNNVKLIVLDRLIELKEHPAHERVLQDLVMDILRVLSTPDLEVRKKTLQLALDLVSSRNVEELVIVLKKEVIKTNNVSEHEDTDKYRQLLVRTLHSCSVRFPDMAANVIPVLMEFLSDNNEAAAADVLEFVREAIQRFDNLRMLIVEKMLEVFHAIKSVKIYRGALWILGEYCSTKEDIQSVMTEIRRSLGEIPIVESEIKKEAGELKPEEEITVGPVQKLVTEMGTYATQSALSSSRPTKKEEDRPPLRGFLLDGDFFVAASLATTLTKIALRYVALVQEKKKQNSFVAEAMLLMATILHLGKSSLPKKPITDDDVDRISLCLKVLSECSPLMNDIFNKECRQSLSHMLSAKLEEEKLSQKKESEKRNVTVQPDDPISFMQLTAKNEMNCKEDQFQLSLLAAMGNTQRKEAADPLASKLNKVTQLTGFSDPVYAEAYVHVNQYDIVLDVLVVNQTSDTLQNCTLELATLGDLKLVEKPSPLTLAPHDFANIKANVKVASTENGIIFGNIVYDVSGAASDRNCVVLSDIHIDIMDYIQPATCTDAEFRQMWAEFEWENKVTVNTNMVDLNDYLQHILKSTNMKCLTPEKALSGYCGFMAANLYARSIFGEDALANVSIEKPIHQGPDAAVTGHIRIRAKSQGMALSLGDKINLSQKKTSI [COPB1] | -0.149 | 51.8 °C | 51.7 °C | -0.197 | 0.105 | 1.39
MTAELQQDDAAGAADGHGSSCQMLLNQLREITGIQDPSFLHEALKASNGDITQAVSLLTDERVKEPSQDTVATEPSEVEGSAANKEVLAKVIDLTHDNKDDLQAAIALSLLESPKIQADGRDLNRMHEATSAETKRSKRKRCEVWGENPNPNDWRRVDGWPVGLKNVGNTCWFSAVIQSLFQLPEFRRLVLSYSLPQNVLENCRSHTEKRNIMFMQELQYLFALMMGSNRKFVDPSAALDLLKGAFRSSEEQQQDVSEFTHKLLDWLEDAFQLAVNVNSPRNKSENPMVQLFYGTFLTEGVREGKPFCNNETFGQYPLQVNGYRNLDECLEGAMVEGDVELLPSDHSVKYGQERWFTKLPPVLTFELSRFEFNQSLGQPEKIHNKLEFPQIIYMDRYMYRSKELIRNKRECIRKLKEEIKILQQKLERYVKYGSGPARFPLPDMLKYVIEFASTKPASESCPPESDTHMTLPLSSVHCSVSDQTSKESTSTESSSQDVESTFSSPEDSLPKSKPLTSSRSSMEMPSQPAPRTVTDEEINFVKTCLQRWRSEIEQDIQDLKTCIASTTQTIEQMYCDPLLRQVPYRLHAVLVHEGQANAGHYWAYIYNQPRQSWLKYNDISVTESSWEEVERDSYGGLRNVSAYCLMYINDKLPYFNAEAAPTESDQMSEVEALSVELKHYIQEDNWRFEQEVEEWEEEQSCKIPQMESSTNSSSQDYSTSQEPSVASSHGVRCLSSEHAVIVKEQTAQAIANTARAYEKSGVEAALSEVMLSPAMQGVILAIAKARQTFDRDGSEAGLIKAFHEEYSRLYQLAKETPTSHSDPRLQHVLVYFFQNEAPKRVVERTLLEQFADKNLSYDERSISIMKVAQAKLKEIGPDDMNMEEYKKWHEDYSLFRKVSVYLLTGLELYQKGKYQEALSYLVYAYQSNAALLMKGPRRGVKESVIALYRRKCLLELNAKAASLFETNDDHSVTEGINVMNELIIPCIHLIINNDISKDDLDAIEVMRNHWCSYLGQDIAENLQLCLGEFLPRLLDPSAEIIVLKEPPTIRPNSPYDLCSRFAAVMESIQGVSTVTVK [USP28] | 0.0518 | 48 °C | 49.4 °C | -0.0214 | 0.432 | 0.537
MTAPCSQPAQLPGRRQLGLVPFPPPPPRTPLLWLLLLLLAAVAPARGWESGDLELFDLVEEVQLNFYQFLGVQQDASSADIRKAYRKLSLTLHPDKNKDENAETQFRQLVAIYEVLKDDERRQRYDDILINGLPDWRQPVFYYRRVRKMSNAELALLLFIILTVGHYAVVWSIYLEKQLDELLSRKKREKKKKTGSKSVDVSKLGASEKNERLLMKPQWHDLLPCKLGIWFCLTLKALPHLIQDAGQFYAKYKETRLKEKEDALTRTELETLQKQKKVKKPKPEFPVYTPLETTYIQSYDHGTSIEEIEEQMDDWLENRNRTQKKQAPEWTEEDLSQLTRSMVKFPGGTPGRWEKIAHELGRSVTDVTTKAKQLKDSVTCSPGMVRLSELKSTVQNSRPIKTATTLPDDMITQREDAEGVAAEEEQEGDSGEQETGATDARPRRRKPARLLEATAKPEPEEKSRAKRQKDFDIAEQNESSDEESLRKERARSAEEPWTQNQQKLLELALQQYPRGSSDRWDKIARCVPSKSKEDCIARYKLLVELVQKKKQAKS [DNAJC1] | 0.161 | 52.8 °C | 52.8 °C | -0.0698 | 1.18 | 1.18
MTARGLALGLLLLLLCPAQVFSQSCVWYGECGIAYGDKRYNCEYSGPPKPLPKDGYDLVQELCPGFFFGNVSLCCDVRQLQTLKDNLQLPLQFLSRCPSCFYNLLNLFCELTCSPRQSQFLNVTATEDYVDPVTNQTKTNVKELQYYVGQSFANAMYNACRDVEAPSSNDKALGLLCGKDADACNATNWIEYMFNKDNGQAPFTITPVFSDFPVHGMEPMNNATKGCDESVDEVTAPCSCQDCSIVCGPKPQPPPPPAPWTILGLDAMYVIMWITYMAFLLVFFGAFFAVWCYRKRYFVSEYTPIDSNIAFSVNASDKGEASCCDPVSAAFEGCLRRLFTRWGSFCVRNPGCVIFFSLVFITACSSGLVFVRVTTNPVDLWSAPSSQARLEKEYFDQHFGPFFRTEQLIIRAPLTDKHIYQPYPSGADVPFGPPLDIQILHQVLDLQIAIENITASYDNETVTLQDICLAPLSPYNTNCTILSVLNYFQNSHSVLDHKKGDDFFVYADYHTHFLYCVRAPASLNDTSLLHDPCLGTFGGPVFPWLVLGGYDDQNYNNATALVITFPVNNYYNDTEKLQRAQAWEKEFINFVKNYKNPNLTISFTAERSIEDELNRESDSDVFTVVISYAIMFLYISLALGHMKSCRRLLVDSKVSLGIAGILIVLSSVACSLGVFSYIGLPLTLIVIEVIPFLVLAVGVDNIFILVQAYQRDERLQGETLDQQLGRVLGEVAPSMFLSSFSETVAFFLGALSVMPAVHTFSLFAGLAVFIDFLLQITCFVSLLGLDIKRQEKNRLDIFCCVRGAEDGTSVQASESCLFRFFKNSYSPLLLKDWMRPIVIAIFVGVLSFSIAVLNKVDIGLDQSLSMPDDSYMVDYFKSISQYLHAGPPVYFVLEEGHDYTSSKGQNMVCGGMGCNNDSLVQQIFNAAQLDNYTRIGFAPSSWIDDYFDWVKPQSSCCRVDNITDQFCNASVVDPACVRCRPLTPEGKQRPQGGDFMRFLPMFLSDNPNPKCGKGGHAAYSSAVNILLGHGTRVGATYFMTYHTVLQTSADFIDALKKARLIASNVTETMGINGSAYRVFPYSVFYVFYEQYLTIIDDTIFNLGVSLGAIFLVTMVLLGCELWSAVIMCATIAMVLVNMFGVMWLWGISLNAVSLVNLVMSCGISVEFCSHITRAFTVSMKGSRVERAEEALAHMGSSVFSGITLTKFGGIVVLAFAKSQIFQIFYFRMYLAMVLLGATHGLIFLPVLLSYIGPSVNKAKSCATEERYKGTERERLLNF [NPC1] | -0.0136 | 58.3 °C | 56.1 °C | -0.0644 | -3.38 | -3.22
MTDLVAVWDVALSDGVHKIEFEHGTTSGKRVVYVDGKEEIRKEWMFKLVGKETFYVGAAKTKATINIDAISGFAYEYTLEINGKSLKKYMEDRSKTTNTWVLHMDGENFRIVLEKDAMDVWCNGKKLETAGEFVDDGTETHFSIGNHDCYIKAVSSGKRKEGIIHTLIVDNREIPEIAS [FAIM] | -0.00968 | 50.8 °C | 49.1 °C | -0.25 | 0.651 | 1.16
MTDQENNNNISSNPFAALFGSLADAKQFAAIQKEQLKQQSDELPASPDDSDNSVSESLDEFDYSVAEISRSFRSQQEICEQLNINHMIQRIFLITLDNSDPSLKSGNGIPSRCVYLEEMAVELEDQDWLDMSNVEQALFARLLLQDPGNHLINMTSSTTLNLSADRDAGERHIFCYLYSCFQRAKEEITKVPENLLPFAVQCRNLTVSNTRTVLLTPEIYVDQNIHEQLVDLMLEAIQGAHFEDVTEFLEEVIEALILDEEVRTFPEVMIPVFDILLGRIKDLELCQILLYAYLDILLYFTRQKDMAKVFVEYIQPKDPTNGQMYQKTLLGVILSISCLLKTPGVVENHGYFLNPSRSSPQEIKVQEANIHQFMAQFHEKIYQMLKNLLQLSPETKHCILSWLGNCLHANAGRTKIWANQMPEIFFQMYASDAFFLNLGAALLKLCQPFCKPRSSRLLTFNPTYCALKELNDEERKIKNVHMRGLDKETCLIPAVQEPKFPQNYNLVTENLALTEYTLYLGFHRLHDQMVKINQNLHRLQVAWRDAQQSSSPAADNLREQFERLMTIYLSTKTAMTEPQMLQNCLNLQVSMAVLLVQLAIGNEGSQPIELTFPLPDGYSSLAYVPEFFADNLGDFLIFLRRFADDILETSADSLEHVLHFITIFTGSIERMKNPHLRAKLAEVLEAVMPHLDQTPNPLVSSVFHRKRVFCNFQYAPQLAEALIKVFVDIEFTGDPHQFEQKFNYRRPMYPILRYMWGTDTYRESIKDLADYASKNLEAMNPPLFLRFLNLLMNDAIFLLDEAIQYLSKIKIQQIEKDRGEWDSLTPEARREKEAGLQMFGQLARFHNIMSNETIGTLAFLTSEIKSLFVHPFLAERIISMLNYFLQHLVGPKMGALKVKDFSEFDFKPQQLVSDICTIYLNLGDEENFCATVPKDGRSYSPTLFAQTVRVLKKINKPGNMIMAFSNLAERIKSLADLQQQEEETYADACDEFLDPIMSTLMCDPVVLPSSRVTVDRSTIARHLLSDQTDPFNRSPLTMDQIRPNTELKEKIQRWLAERKQQKEQLE [UBE4A] | -0.123 | 49.4 °C | 50 °C | -0.0832 | -0.166 | 0.519

Source: the supplement of paper PMC5998384
